Measured values as given in the supplement of paper PMC9170038.

Test system: MS2 coat protein
Assay: apparent KD of MS2 coat protein; designed switch direction (-1 OFF switch, 1 ON switch): -1; higher = weaker reporter binding
Method in brief: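 Apparent KD, taken as the median over clusters for each design, was obtained by curve-fitting normalised cluster fluorescence. Designed RNA switches had been transcribed on Illumina chips by stalled E. coli RNA polymerase and titrated with SNAP-549-labelled MS2 coat protein, doubling from 0.7 or 1.5 nM to 3 µM.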

[1] = Eterna round: R95, input ligand: FMN 200 uM
[2] = Eterna round: R95, input ligand: microRNA oligo, concentration not stated
[3] = Eterna round: R95, input ligand: none
[4] = input ligand: microRNA oligo, concentration not stated

Sequence | apparent KD of MS2 coat protein (input ligand: FMN 200 uM) | apparent KD of MS2 coat protein (input ligand: none) | apparent KD of MS2 coat protein [2] | also measured
CUUCUGUGAGGAUAUUAGUAGUAAAUGAAUAAAAUUAUUACUGAGAAGGCACAUGAGGAUCACCCAUGUUCCUC [Mat - Exclusion 4 - Eli Mod - D12] (Eterna round: R97, puzzle: Exclusion 4) | 386 nM | 36.3 nM |  | 
CUUGUCCGAGGAUAUAUUAUGUGAUACAUGAGGAUCACCCAUGUUAUAUGAUGGAUAUAAAUAGAAGGCGGACGAG [Mat - Exclusion 5 - JL mod - D68] (puzzle: Exclusion 5) |  |  | 46.7 nM | apparent KD of MS2 coat protein [1]: 70.2 nM; apparent KD of MS2 coat protein [3]: 47.3 nM
CUUGUUUAUGUGAGGAUAUACUGUUAGUAAUGUUUGUAGAAGGUACAUGAGGAUCACCCAUGUUUAUUUUUUUU [JR_BME4_Sub044] (puzzle: Brourd's mod of Exclusion 4) |  |  | 20.2 nM | 
CUUUAGCUAGGAUAUACAUGAGGAUCACCCAUGUUAGCGGUCCAUUGGGCCGCGGGUUGUAGAAGGAGCAUUAA [Azabeso] (puzzle: Exclusion 3) |  |  | 25.3 nM | 
CUUUAGUGAGGAUAUGUGGCUUCGAUCGUGAGAUCGAGGCUACAGAAGGCACAUGAGGAUCACCCAUGUUCCUC [jl-ex4-4.01 salish99 mod] (Eterna round: R97, puzzle: Exclusion 4) | 464 nM | 34.1 nM |  | 
CUUUAGUGAGGAUAUUAGUAGUAAUACAAUAGUAUUACUACUGAGAAGGCACAUGAGGAUCACCCAUGUUCCUC [Mat - Exclusion 4 - Mod of Omei - D79] (Eterna round: R96, puzzle: Exclusion 4) | 303 nM | 28.5 nM |  | apparent KD of MS2 coat protein [4]: 25 nM
CUUUAGUGAGGAUAUUAGUAGUAAUACAAUAGUAUUACUACUGAGAAGGCACAUGAGGAUCACCCAUGUUCCUC [Mat - Exclusion 4 - Mod of Omei - D79] (puzzle: Exclusion 4) |  |  | 28 nM | 
CUUUCGUGAGGAUAUCAGUAGUAAUAAUAUAAAAUUACUACUGAGAAGGCACAUGAGGAUCACCCAUGUUCCUC [salish99_ex3_r3_101] (puzzle: Exclusion 4) |  |  | 23.7 nM | 
CUUUCGUGAGGAUAUGAAGCUUCGAUCGUGAGAUCGAGGCUACAGAAGGCACAUGAGGAUCACCCAUGUUCCUC [salish99_ex4_r4_217] (Eterna round: R97, puzzle: Exclusion 4) | 666 nM | 31.9 nM |  | 
CUUUCGUGAGGAUAUGUGGCUUCGAUCGUGCGAUCGAGGCUACAGAAGGCACAUGAGGAUCACCCAUGUUCCUC [salish99_ex4_r4_221] (Eterna round: R97, puzzle: Exclusion 4) | 427 nM | 45.6 nM |  | 
CUUUUCAGAGGAUAUAGAUAUUAUCACAUGAGGAUCACCCAUGUAACCCUACAUUCACCACUAGAAGGCUGUUAAG [lam1] (Eterna round: R97, puzzle: Exclusion 5) | 27.1 nM | 48.5 nM |  | 
CUUUUGUGAGGAUAUCAGUAGUAAAAAAAUAAAAUUACUACUGAGAAGGCACAUGAGGAUCACCCAUGUUCCUU [salish99_ex4_r3_010] (puzzle: Exclusion 4) |  |  | 15.2 nM | apparent KD of MS2 coat protein [1]: 28.4 nM; apparent KD of MS2 coat protein [3]: 14 nM
CUUUUGUGAGGAUAUCAGUAGUAAAUAAAUAAAAUUACUACUGAGAAGGCACAUGAGGAUCACCCAUGUUCCUU [salish99_ex3_r3_089] (puzzle: Exclusion 4) |  |  | 15.3 nM | 
CUUUUGUGAGGAUAUCAGUAGUAAAUAAUUAAAAUUACUACUGAGAAGGCACAUGAGGAUCACCCAUGUUCCUC [salish99_ex3_r3_080] (puzzle: Exclusion 4) |  |  | 40.3 nM | 
CUUUUGUGAGGAUAUCAGUAGUAAUACAAUAGUAUUACUACUGAGAAGGCACAUGAGGAUCACCCAUGUUUCUC [Ex4 344 Omei mod 3] (puzzle: Exclusion 4) |  |  | 39.8 nM | 
CUUUUGUGAGGAUAUCAUUAGUAAAUAAAUAAAAUUACUACUGAGAAGGCACAUGAGGAUCACCCAUGUUCCUC [salish99_ex3_r3_072] (puzzle: Exclusion 4) |  |  | 31.8 nM | 
CUUUUGUGAGGAUAUUAGUAGUAAAUGAAUAAAAUUAUUACUGAGAAGGUACAUGAGGAUCACCCAUGUUCCUU [Mat - Exclusion 4 - Eli Mod - D20] (Eterna round: R97, puzzle: Exclusion 4) | 16.3 nM | 14.3 nM |  | 

Sequence | apparent KD of MS2 coat protein (input ligand: FMN 200 uM) | apparent KD of MS2 coat protein (input ligand: none) | apparent KD of MS2 coat protein [2] | also measured
CUUUUGUGAGGAUAUUAGUUGUAAAUAAAUAAAAUUACUACUGAGAAGGCACAUGAGGAUCACCCAUGUUCCUC [salish99_ex4_r3_049] (puzzle: Exclusion 4) |  |  | 33.2 nM | 
CUUUUGUGAGGAUAUUCGUAGUAAAUGAAUAAAAUUAUUACGGAGAAGGCACAUGAGGAUCACCCAUGUUCCUU [Mat - Exclusion 4 - Eli Mod - D32] (Eterna round: R97, puzzle: Exclusion 4) | 53.2 nM | 16.7 nM |  | 
GAAAACGAAGAGGAUAUAUGAUAUCAAAGCUUCAUAGAAGGCUUCACAUGAGGAUCACCCAUGUGAUCUUCAAA [jl-ex6-4.07 ViennaUCT mod] (Eterna round: R97, puzzle: Exclusion 6) | 262 nM | 37.9 nM |  | 
GAAAAGGUAGGAUAUACGAAAAAAGAGGGUAGAAAAAAAACACAUGAGGAUCACCCAUGUAGAAGGACCAAAAG [salish99_ex2_r3_025] (puzzle: Exclusion 2) |  |  | 32.1 nM | apparent KD of MS2 coat protein [1]: 60.2 nM; apparent KD of MS2 coat protein [3]: 24.9 nM
GAAAAGUAAGGAUAUGUCCACAGUGAGGAAACUCACUGUGGACAGAAGGUACAUGAGGAUCACCCAUGUUUCUC [ExDelusion 3 - Jieux - Exclusion 4] (Eterna round: R97, puzzle: Exclusion 4) | 213 nM | 39 nM |  | 
GAACCAAAAGGAUAUGGCGUAACAAACAUGAGGAUCACCCAUGUCCUCGAUGAAUAUCCGCCAGAAGGUUUGUCUC [Eternabot (L2) Solution 10] (Eterna round: R97, puzzle: Exclusion 5) | 1000 nM | 1760 nM |  | 
GAAGGUGAGCAGGAUAUCCGCGCACGAAUAUAAGGAGAAGGGCUUACAUGAGGAUCACCCAUGUAAGGUGGUAG [Rexequar] (puzzle: Exclusion 6) |  |  | 11.9 nM | apparent KD of MS2 coat protein [1]: 15.8 nM; apparent KD of MS2 coat protein [3]: 11.5 nM
GAAUAGAGAGGAUAUGCGAAGUAGGUAGUAAGAUAUAUCUGACAUGAGGAUCACCCAUGUAGAAGGCUCAGAUC [EX2 #4] (Eterna round: R97, puzzle: Exclusion 2) | 34.8 nM | 35.2 nM |  | 
GAAUAGGCAGGAUAUACAUGAGGAUCACCCAUGUGCUUGCGAUAGGCACGUGAACAACGUAGAAGGGCCUUAAC [ChP 13.04.2015 #12] (Eterna round: R96, puzzle: Exclusion 3) | 184 nM | 34.9 nM |  | apparent KD of MS2 coat protein [4]: 30.8 nM
GAAUAGGCAGGAUAUACAUGAGGAUCACCCAUGUGCUUGCGAUAGGCACGUGAACAACGUAGAAGGGCCUUAAC [ChP 13.04.2015 #12] (puzzle: Exclusion 3) |  |  | 28.3 nM | 
GAAUAGGGAGGAUAUCCAAUAUAUGACAUGAGGAUCACCCAUGUUUCCACUCGUACCUCCGGAGAAGGCCCAUAAA [Ex5 #4] (Eterna round: R97, puzzle: Exclusion 5) | 22.8 nM | 19.9 nM |  | 
GACCAGGAAGGAUAUACAUACGGUUCGUGCCUUGGGCUGCGACAUGAGGAUCACCCAUGUAGAAGGUCCAGGUC [EX2 B.18] (Eterna round: R97, puzzle: Exclusion 2) | 47.1 nM | 18.6 nM |  | 
GACCGUGCUUAGGAUAUACGUUAGGAGUUGACCGUAGAAGGGAGUACAUGAGGAUCACCCAUGUCACCUACAGC [Eternabot (L2) Solution 75] (Eterna round: R97, puzzle: Exclusion 6) | 15.9 nM | 16.5 nM |  | 
GACUAGGGAGGAUAUAUUUGCAGUGUACCUCGGGUGAUCGCACUUGAGGAUCACCCAAGUAGAAGGCUCGAGGG [EX2 #26] (Eterna round: R97, puzzle: Exclusion 2) | 41.9 nM | 46.5 nM |  | 
GACUCGCACUGAGGAUAUCGAAACGAUACGUCGCGAGAAGGCAGAGCGAACAUGAGGAUCACCCAUGUGGGUUCGCCUGAUGUA [Geedinsoma] (Eterna round: R96, puzzle: Exclusion NG 1) | 23.2 nM | 16.7 nM |  | apparent KD of MS2 coat protein [4]: 12.9 nM
GACUGCAGAGGAUAUACAUGAGGAUCACCCAUGUGAGAUGCCUGACAGGUGUUGCUGAGUAGAAGGCUGCACUG [Onorveer] (puzzle: Exclusion 3) |  |  | 13.2 nM | 
GACUGGACAGGAUAUGUUCUUGAGCACUUGAGGAUCACCCAAGUCAUCAAGAACUCAGGCACAGAAGGGUUUAUGC [salish99_ex5_r4_011] (Eterna round: R97, puzzle: Exclusion 5) | 19.5 nM | 13.7 nM |  | 
